Experiments:
[1] = system: DV1 West Pac 74; assay: Inhibition of the infection of Vero cells by a natural ligand of the A2MR receptor or anti-receptor antibodies (lytic plaques); type: cell-based, dengue virus; conditions: inhibition percentage; RAP13 and BSA 100 μg/mL, antibody preparations 1/100 dilution; average of three determinations
Method: (§1) Vero cells were grown in 24-well plates to approximately 90% confluence, and washed twice with MEM medium without FCS. The dilutions containing the proteins or the antibodies, according to the objective of the assay, were then added and incubated for 1 hour at 37° C. After the incubation, the virus was added at a multiplicity of infection of 0.1, followed by a subsequent incubation for 1 hour at 37° C. At the end of the second incubation, the unbound virus was eliminated by washing, and the cells were incubated for 5 days at 37° C. in high density medium (MEM supplemented with non essential aminoacids, 1% FCS, 1% carboxymethylcellulose) in order to propitiate the appearance of lytic plaques. The plaques were visualized by staining with 0.1% Naphtol Blue Black in 0.15 Mol/L sodium acetate. Two replicates were used per experimental point in each assay, and three independent determinations were performed. The inhibition percentage was calculated according to the expression
(§2) The assay for the inhibition of infection was performed on 24-well plates seeded with a monolayer of Vero cells at approximately 90% confluence. The dilution of the virus was adjusted to obtain approximately 20 lytic plaques per well. […] There were no significant reductions when the cells were pre-incubated with BSA or with antibody preparations against an unrelated antigen.

[2] = system: DV3 CH53489; assay: as above; type: cell-based, dengue virus; conditions: inhibition percentage; RAP13 and BSA 100 μg/mL, antibody preparations 1/100 dilution; average of three determinations
Method: as §1, §2

[3] = system: DV4 TVP360; assay: as above; type: cell-based, dengue virus; conditions: inhibition percentage; RAP13 and BSA 100 μg/mL, antibody preparations 1/100 dilution; average of three determinations
Method: as §1, §2

[4] = system: Vero cells; assay: Binding of fluoresceinated proteins to the surface of Vero cells (flow cytometry); type: cell-based, monkey
Method: FIG. 7. Inhibition of the binding of DIIIE2J to Vero cells by A2M and RAPR13. The pre-fixed cells were incubated with the fluoresceinated proteins, and the intensity of the fluorescence due to binding of the fluoresceinated ligands to the cells was measured by flow cytometry. Each experimental point represents data gathered from a minimum of 20 000 cells. (A) Binding of A2M and RAPR13 to the cells. The depicted values correspond to the average of the intensity of the fluorescence at each point of the assay minus the fluorescence obtained with untreated cells. (B) and (C) The cells were incubated with fluoresceinated DIIIE2J in the presence or absence of the non-fluoresceinated ligands, using the molar ratio indicated on each case. The % binding was calculated from the ratio of the average intensity of the fluorescence of the cells incubated with the mixture of fluoresceinated DIIIE2J plus the proteins, between that of the cells incubated only with fluoresceinated DIIIE2J.
In the case of cultured Vero cells, they were detached from the surface of the culture flask without using proteases, by incubation with PBS pH 7.4, 5 mM EDTA for 10 min. at 37° C., gently tapping the outside of the flask.
The cells, collected and washed as described above, were incubated in fixing solution (PBS pH 7.4, 2% paraformaldehyde, 0.01% NaN3, 1 mM CaCl2, 1 mM MgCl2 for 30 min at 4° C., and the fixing solution was then eliminated by centrifugation at 350×g for 5 min a 4° C. […] The intensity of the fluorescence was quantified by flow cytometry on a PAS III cytometer (Partec, Germany). The values for each experimental point were calculated from measurements on a minimum of 20 000 cells.
Given that this cell line is derived from monkey kidney cells and that the ligands for the A2MR receptor used in the assays are of human origin, a preliminary and necessary step was the corroboration of the binding of the RAPR13 and A2M MeNH2 proteins to Vero cells. With this aim, these proteins were fluoresceinated, and their binding to the surface of Vero cells was measured using flow cytometry. […]

[5] = system: DV2 S16803; assay: Inhibition of the infection of Vero cells by a natural ligand of the A2MR receptor or anti-receptor antibodies (lytic plaques); type: cell-based, dengue virus
Method: FIG. 8. Effect of recombinant RAP on the infection of Vero cells with DV2, strain S16803. Vero monolayers at 90% confluence were pre-incubated with different dilutions of RAPR13 or BSA, for 1 hour at 37° C., followed by the addition of the viral preparation at a multiplicity of infection of 1 and another incubation at 37° C. for 1 hour. After eliminating the unbound viruses, MEM medium supplemented with non-essential aminoacids, 1% FCS and 1% CMC was added, and the cells were incubated for 5 days at 37° C. The lytic plaques were visualized by staining the monolayer with Naphtol Blue Black. The assays were performed in 24-well plates, using duplicates for each point of the assay.
Vero cells were grown in 24-well plates to approximately 90% confluence, and washed twice with MEM medium without FCS. The dilutions containing the proteins or the antibodies, according to the objective of the assay, were then added and incubated for 1 hour at 37° C. After the incubation, the virus was added at a multiplicity of infection of 0.1, followed by a subsequent incubation for 1 hour at 37° C. […] The inhibition percentage was calculated according to the expression […]

B1: RAPR13: recombinant human LRPAP1 (RAP) protein with N-terminal tag of 6 histidines, SEQ ID. 26 (protein, listed as Homo sapiens)
chain: MGSSHHHHHHSSGLVPRGSHMYSREKNQPKPSPKRESGEEFRMEKLNQLWEKAQRLHLPPVRLAELHADLKIQERDELAWKKLKLDGLDEDGEKEARLIRNLNVILAKYGLDGKKDARQVTSNSLSGTQEDGLDDPRLEKLWHKAKTSGKFSGEELDKLWREFLHHKEKVHEYNVLLETLSRTEEIHENVISPSDLSDIKGSVLHSRHTELKEKLRSINQGLDRLRRVSHQGYSTEAEFEEPRVIDLWDLAQSANLTDKELEAFREELKHFEAKIEKHNHYQKQLEIAHEKLRHAESVGDGERVSRSREKHALLEGRTKELGYTVKKHLQDLSGRISRARHNEL
modifications: N-terminal His6 tag
inhibition of the infection, DV1 [1]: 65
inhibition of the infection, DV3 [2]: 60
inhibition of the infection, DV4 [3]: 75
binding to the surface of Vero cells ([4]; fluoresceinated proteins (FIG. 7A)): concentration-dependant and saturable binding behavior
binding of fluoresceinated A2M_MeNH2 to Vero cells in the presence of unlabelled protein ([4]; unlabelled protein at 100-fold molar excess, 30 min. at 4° C. (FIG. 7B)): decrease in fluorescence
inhibition of the infection, DV2 ([5]; inhibition percentage, RAP13 and BSA 100 μg/mL, antibody preparations 1/100 dilution, average of three determinations): 76
inhibition of the infection for DV2, concentration dependence ([5]; lytic plaque reduction assay, dilutions of RAPR13 (FIG. 8)): dependent on the protein concentration

— patent US8420311B2, “Method to block the infection by flaviviruses, molecules and uses” (Centro de Ingenieria Genetica y Biotecnologia, priority 2006, dated 2013)
